For data set [1], the target named is T1, EGFR (Homo sapiens, UniProt P00533). The data set is described as follows: Kinetic evaluation of peptide substrates, varying peptide at fixed ATP (phosphocellulose filter, [γ-33P]ATP). The class given is biochemical. The conditions noted are these: ATP concentration >10 × Km (200 μM ATP); for Kcat: varying peptide, 10 minutes at 23° C.; for Km: Km for peptide. The procedure:
Peptide sequences identified as preferred substrates for ErbB-2 using the methods described in Laboratory Example 3 were synthesized. The kcat and Km values for each peptide were determined as follows, using the kinases ErbB-2, ErbB-4, and EGFR.
Reactions were performed in 96-well polystyrene round bottom plates in a final volume of 45 μL. Reaction mixtures contained 50 mM MOPS, pH 7.5, 10 mM MnCl2, 1 mM dithiothreitol (DTT), 200 μM ATP, 1.0 μCi [γ-^33P] ATP, and varying concentrations of peptide. The reaction was initiated by adding the purified kinase of interest and halted after 10 minutes at 23° C. (room temperature) by adding 45 μL of 0.5% phosphoric acid in water. A 75 μL aliquot of the halted reaction mixture was then transferred to MAPH phosphocellulose filter plates (Millipore, Bedford, Mass.). The plates were filtered three times with 0.2 mL of 0.5 percent phosphoric acid. Scintillation cocktail (50 μL) was added to each well, and the plate was analyzed by counting in a Packard TOPCOUNT® scintillation counter (Packard Instrument Co., Meriden, Conn.). In these assays, the concentration of ATP was greater than ten-fold higher than the Km for ATP, which permitted the kinetic data to be treated as a pseudo-first-order reaction with varying peptide concentration. All experiments were performed in quadruplicate and the average value for each data point was analyzed. The Km and Vmax values were calculated by fitting the data to the Henri-Michaelis-Menten equation by non-linear regression using SIGMAPLOT® (SPSS Science, Chicago, Ill.). kcat values were calculated using the Vmax value, and are based on the protein concentration of the enzyme preparation and an estimate of purity determined from an evaluation of a Coomassie Blue stained SDS-polyacrylamide gel.

Data set [2] has as its target T1, EGFR. The data set is described as follows: Two-substrate kinetic comparison with known substrate, peptide and ATP varied simultaneously. The class given is biochemical. The conditions noted are these: peptide and ATP concentrations varied simultaneously, two-substrate fit. As to the method: In a separate experiment, the kinetic parameters of both peptide number 1 shown in Table 2, and a peptide with the sequence Biotin-Ahx-G-G-M-E-D-I-Y-F-E-F-M-G-G-K-K-K-amide (SEQ ID NO: 17), which has been previously identified as an ErbB-2 substrate (Jan et. al., (2000), Biochemistry 39: 9786-803), were determined and compared. In this experiment, both peptide and ATP concentrations were varied, and the resulting data was simultaneously fit to an equation representing a two-substrate enzyme reaction using SIGMAPLOT®. Data was collected using the kinases ErbB-2, ErbB-4, and EGFR. The results of this experiment are shown in Table 3 and indicate that for all three kinases tested, peptide number 1 shown in Table 2 is kinetically at least equivalent (based on kcat/Km values) to the known peptide substrate identified by Jan et al.

The target in data set [3] is T2, Biotin-Ahx-(SEQ ID NO: 15)-amide.
T2 chain: RAHEEEYHFIFAKKK

Data set [4] has as its target T3, Biotin-Ahx-G-G-M-E-D-I-Y-F-E-F-M-G-G-K-K-K-amide (SEQ ID NO: 17).
T3 chain: GGMEDIYFEFMGGKKK

Data set [5] has as its target T4, Biotin-Ahx-(SEQ ID NO: 12)-amide.
T4 chain: RAHEEIYHFFFAKKK

Data set [6] deals with T5, Biotin-Ahx-(SEQ ID NO: 16)-amide.
T5 chain: RAHEEEYHFFFAKKK

Data set [7] addresses T6, Biotin-Ahx-(SEQ ID NO: 13)-amide.
T6 chain: RAHHEIYHFFFAKKK

The target in data set [8] is T7, Biotin-Ahx-(SEQ ID NO: 14)-amide.
T7 chain: RAHHEEYHFFFAKKK

Where a SMILES comes first, the peptide text is derived from it. The star is where a group is joined. Biotin = O=C1N[C@H]2[C@H](CS[C@H]2CCCCC(=O)*)N1; Ahx = NCCCCCC(=O)O

In general, Km refers to the concentration of substrate that gives half-maximal velocity. With `CC[C@H](C)[C@H](NC(=O)[C@H](CCC(=O)O)NC(=O)[C@H](Cc1c[nH]cn1)NC(=O)[C@H](Cc1c[nH]cn1)NC(=O)[C@H](C)NC(=O)[C@H](CCCNC(=N)N)NC(=O)CCCCCNC(=O)CCCC[C@@H]1SC[C@@H]2NC(=O)N[C@@H]21)C(=O)N[C@@H](Cc1ccc(O)cc1)C(=O)N[C@@H](Cc1c[nH]cn1)C(=O)N[C@@H](Cc1ccccc1)C(=O)N[C@@H](Cc1ccccc1)C(=O)N[C@@H](Cc1ccccc1)C(=O)N[C@@H](C)C(=O)N[C@@H](CCCCN)C(=O)N[C@@H](CCCCN)C(=O)N[C@@H](CCCCN)C(N)=O` [Peptide 2, Biotin-Ahx-(SEQ ID NO: 13)-amide] ({Biotin-Ahx}-RAHHEIYHFFFAKKK-NH2), at EGFR [1], the Kcat came out at 0.252 s⁻¹ and the Km stood at 105 µM.

With `CC[C@H](C)[C@H](NC(=O)[C@H](CC(=O)O)NC(=O)[C@H](CCC(=O)O)NC(=O)[C@H](CCSC)NC(=O)CNC(=O)CNC(=O)CCCCCNC(=O)CCCC[C@@H]1SC[C@@H]2NC(=O)N[C@@H]21)C(=O)N[C@@H](Cc1ccc(O)cc1)C(=O)N[C@@H](Cc1ccccc1)C(=O)N[C@@H](CCC(=O)O)C(=O)N[C@@H](Cc1ccccc1)C(=O)N[C@@H](CCSC)C(=O)NCC(=O)NCC(=O)N[C@@H](CCCCN)C(=O)N[C@@H](CCCCN)C(=O)N[C@@H](CCCCN)C(N)=O` [Biotin-Ahx-(SEQ ID NO: 17)-amide, Biotin-Ahx-G-G-M-E-D-I-Y-F-E-F-M-G-G-K-K-K-amide, reference compound] ({Biotin-Ahx}-GGMEDIYFEFMGGKKK-NH2), on EGFR [2], the Kcat was determined as 0.218 s⁻¹ and the Km came to 899 µM.

For `CC[C@H](C)[C@H](NC(=O)[C@H](Cc1ccccc1)NC(=O)[C@H](Cc1c[nH]cn1)NC(=O)[C@H](Cc1ccc(O)cc1)NC(=O)[C@H](CCC(=O)O)NC(=O)[C@H](CCC(=O)O)NC(=O)[C@H](CCC(=O)O)NC(=O)[C@H](Cc1c[nH]cn1)NC(=O)[C@H](C)NC(=O)[C@H](CCCNC(=N)N)NC(=O)CCCCCNC(=O)CCCC[C@@H]1SC[C@@H]2NC(=O)N[C@@H]21)C(=O)N[C@@H](Cc1ccccc1)C(=O)N[C@@H](C)C(=O)N[C@@H](CCCCN)C(=O)N[C@@H](CCCCN)C(=O)N[C@@H](CCCCN)C(N)=O` [Peptide 4, Biotin-Ahx-(SEQ ID NO: 15)-amide] ({Biotin-Ahx}-RAHEEEYHFIFAKKK-NH2), at EGFR [1], the Kcat was found to be 0.0567 s⁻¹ and the Km came to 10 µM.

`C[C@H](NC(=O)[C@H](CCCNC(=N)N)NC(=O)CCCCCNC(=O)CCCC[C@@H]1SC[C@@H]2NC(=O)N[C@@H]21)C(=O)N[C@@H](Cc1c[nH]cn1)C(=O)N[C@@H](Cc1c[nH]cn1)C(=O)N[C@@H](CCC(=O)O)C(=O)N[C@@H](CCC(=O)O)C(=O)N[C@@H](Cc1ccc(O)cc1)C(=O)N[C@@H](Cc1c[nH]cn1)C(=O)N[C@@H](Cc1ccccc1)C(=O)N[C@@H](Cc1ccccc1)C(=O)N[C@@H](Cc1ccccc1)C(=O)N[C@@H](C)C(=O)N[C@@H](CCCCN)C(=O)N[C@@H](CCCCN)C(=O)N[C@@H](CCCCN)C(N)=O` [Peptide 3, Biotin-Ahx-(SEQ ID NO: 14)-amide] ({Biotin-Ahx}-RAHHEEYHFFFAKKK-NH2): at EGFR [1], the Kcat stood at 0.108 s⁻¹ and the Km amounted to 12.2 µM.

On to `C[C@H](NC(=O)[C@H](CCCNC(=N)N)NC(=O)CCCCCNC(=O)CCCC[C@@H]1SC[C@@H]2NC(=O)N[C@@H]21)C(=O)N[C@@H](Cc1c[nH]cn1)C(=O)N[C@@H](CCC(=O)O)C(=O)N[C@@H](CCC(=O)O)C(=O)N[C@@H](CCC(=O)O)C(=O)N[C@@H](Cc1ccc(O)cc1)C(=O)N[C@@H](Cc1c[nH]cn1)C(=O)N[C@@H](Cc1ccccc1)C(=O)N[C@@H](Cc1ccccc1)C(=O)N[C@@H](Cc1ccccc1)C(=O)N[C@@H](C)C(=O)N[C@@H](CCCCN)C(=O)N[C@@H](CCCCN)C(=O)N[C@@H](CCCCN)C(N)=O` [Peptide 5, Biotin-Ahx-(SEQ ID NO: 16)-amide] ({Biotin-Ahx}-RAHEEEYHFFFAKKK-NH2), for which, on EGFR [1], the Kcat is 0.04 s⁻¹ and the Km worked out at 7.5 µM.

For the molecule `CC[C@H](C)[C@H](NC(=O)[C@H](CCC(=O)O)NC(=O)[C@H](CCC(=O)O)NC(=O)[C@H](Cc1c[nH]cn1)NC(=O)[C@H](C)NC(=O)[C@H](CCCNC(=N)N)NC(=O)CCCCCNC(=O)CCCC[C@@H]1SC[C@@H]2NC(=O)N[C@@H]21)C(=O)N[C@@H](Cc1ccc(O)cc1)C(=O)N[C@@H](Cc1c[nH]cn1)C(=O)N[C@@H](Cc1ccccc1)C(=O)N[C@@H](Cc1ccccc1)C(=O)N[C@@H](Cc1ccccc1)C(=O)N[C@@H](C)C(=O)N[C@@H](CCCCN)C(=O)N[C@@H](CCCCN)C(=O)N[C@@H](CCCCN)C(N)=O` [Peptide 1, Biotin-Ahx-(SEQ ID NO: 12)-amide] ({Biotin-Ahx}-RAHEEIYHFFFAKKK-NH2), at EGFR [1], the Kcat turned out to be 0.102 s⁻¹ and the Km worked out at 8 µM. For the same molecule, on EGFR [2], the Kcat is 0.0567 s⁻¹ and the Michaelis-Menten constant (Km) is 128 µM.

B1: ErbB-4 (protein)
chain: RRKSIKKKRALRRFLETELVEPLTPSGTAPNQAQLRILKETELKRVKVLGSGAFGTVYKGIWVPEGETVKIPVAIKILNETTGPKANVEFMDEALIMASMDHPHLVRLLGVCLSPTIQLVTQLMPHGCLLEYVHEHKDNIGSQLLLNWCVQIAKGMMYLEERRLVHRDLAARNVLVKSPNHVKITDFGLARLLEGDEKEYNADGGKMPIKWMALECIHYRKFTHQSDVWSYGVTIWELMTFGGKPYDGIPTREIPDLLEKGERLPQPPICTIDVYMVMVKCWMIDADSRPKFKELAAEFSRMARDPQRYLVIQGDDRMKLPSPNDSKFFQNLLDEEDLEDMMDAEEYLVPQAFNIPPPIYTSRARIDSNRSEIGHSPPPAYTPMSGNQFVYRDGGFAAEQGVSVPYRAPTSTIPEAPVAQGATAEIFDDSCCNGTLRKPVAPHVQEDSSTQRYSADPTVFAPERSPRGELDEEGYMTPMRDKPKQEYLNPVEENPFVSRRKNGDLQALDNPEYHNASNGPPKAEDEYVNEPLYLNTFANTLGKAEYLKNNILSMPEKAKKAFDNPDYWNHSLPPRSTLQHPDYLQEYSTKYFYKQNGRIRPIVAENPEYLSEFSLKPGTVLPPPPYRHRNTVV
A word on the kcat/Km: it is the second-order rate constant that governs catalysis at low substrate concentration. In general, kcat refers to the maximal rate divided by the concentration of active sites. B1: the Kcat in data set [3] is 0.0217 s⁻¹; in data set [5], 0.0683 s⁻¹; in data set [6], 0.015 s⁻¹; in data set [7], 0.0767 s⁻¹; in data set [8], 0.065 s⁻¹. Moreover, the Michaelis-Menten constant (Km) was 12.5 µM in data set [3]; 144 µM in data set [4]; 6 µM in data set [6]; 37.6 µM in data set [7]; 13.6 µM in data set [8]. Further, the catalytic efficiency (kcat/Km) in data set [3] stood at 1670 M⁻¹ s⁻¹; in data set [4] it was 533 M⁻¹ s⁻¹; in data set [6], 2500 M⁻¹ s⁻¹; in data set [7], 2000 M⁻¹ s⁻¹; in data set [8] it was 4670 M⁻¹ s⁻¹. Further, the values for the kcat in data set [4] and in data set [5] were 0.0767 s⁻¹ and 0.105 s⁻¹, respectively. In addition, the “kinetic comparison with the known substrate (SEQ ID NO: 17), based on kcat/Km” value in data set [5] is “for all three kinases tested, peptide number 1 shown in Table 2 is kinetically at least equivalent (based on kcat/Km values) to the known peptide substrate identified by Jan et al”.
